Measured values reported in the Human Domainome abundance scans (Beltran et al. 2025).

B1: Myocardin, residues 363 to 406; numbered along this chain, Q8IZQ8 (parent)
chain: KPGPLPPNLDDLKVSELRQQLRIRGLPVSGTKTALMDRLRPFQD

Variants of: B1
Test: abundance fitness (aPCA) (normalised: wild type 0, dead -1); higher = more abundant; growth selection in yeast, the domain comes from the species named
Conditions: Homo sapiens

Abundance fitness, by site and new letter:
R24: F -0.819, Y -1.16, N -0.695, W -0.732, D -0.536, P -0.456
V14: S -0.486, F -0.939, D -0.702, Q -0.994, C -0.603, P -0.247, K -0.157, A -0.465, W -1.02, R -1.02, M -0.116, T -0.222, H -0.396, G -0.757, L -0.16
D11: L 0.009, G -0.074, T 0.135, V 0, Q -0.007, N -0.004, C -0.272, W -0.441, K 0.083, S 0.27, F -0.175, P -0.714, Y -0.183, M 0.063, R -0.135, A 0.085, E -0.082
L21: M -0.321, K -0.296, Q -0.517, G -0.68, P -0.523, A -0.037, C -0.271, D -0.361, E -0.42, N -0.244, V -0.432, W -1.02, S -0.94
S15: F -0.22, W -0.163, H 0.023, G -0.122, D 0.015, M -0.245, C -0.168, E 0.171, Y -0.274, T 0.071, R -0.22, I -0.23, V -0.243, A 0.113, L -0.688, Q -0.261, P -0.346, N -0.288
R22: G -0.531, Q -0.928, M -0.619, N -0.371, I -0.384, P -0.818, A -0.138, V -0.557, W -0.771, T -0.258, K 0.063, S -0.21, H -0.624, C -0.194, L -0.374
